According to US20180371086A1:

What was measured:
Test in all cases: cell-based or functional assay
[1] = biological target: HIV-1 Env gp120 of virus CH058, on infected cells (HIV-1)
[2] = biological target: HIV-1 Env of clone RHPA (HIV-1)
[3] = biological target: HIV-1 Env of isolate 92US657 (HIV-1)
[4] = biological target: HIV-1 Env of clone CH058 (HIV-1)
[5] = biological target: HIV-1 Env of isolate 8320 (HIV-1)
[6] = biological target: HIV-1 Env of isolate 92US727 (HIV-1)
[7] = biological target: HIV-1 Env of isolate 8176 (HIV-1)
[8] = biological target: HIV-1 Env of clone THRO (HIV-1)
[9] = biological target: HIV-1 Env of clone REJO (HIV-1)

Work on PGT-121.60 (antibody) yielded a Maximum percent of HIV-infected cells killed; PBMC-derived effector cells; donor 1003277; virus CHO58 [1] of 66.2%, a Maximum percent of HIV-infected cells killed; PBMC-derived effector cells; donor 1004344; virus CHO58 [1] of 82.8% and a Maximum percent of HIV-infected cells killed; tonsil-derived effector cells; donor 1003277; virus CHO58 [1] of 10.9%. The Maximum percent of HIV-infected cells killed; tonsil-derived effector cells; donor 1004344; virus CHO58 [1] was 0%, the Potency (IC50) of killing HIV-infected cells; PBMC-derived effector cells; donor 1003277; virus CHO58 [1] was 0.706 µg/mL and the Potency (IC50) of killing HIV-infected cells; PBMC-derived effector cells; donor 1004344; virus CHO58 [1] was 0.094 µg/mL. For the same substance, the Potency (IC50) of killing HIV-infected cells; tonsil-derived effector cells; donor 1003277; virus CHO58 [1] was over 10 µg/mL, the Potency (IC50) of killing HIV-infected cells; tonsil-derived effector cells; donor 1004344; virus CHO58 [1] was over 10 µg/mL and the IC50 (neutralization, CEM.NKr.CCR5.LucR based assay) [2] was 0.534 µg/mL. The IC50 (neutralization, CEM.NKr.CCR5.LucR based assay) [3] was 0.168 µg/mL, the IC50 (neutralization, CEM.NKr.CCR5.LucR based assay) [4] was 0.063 µg/mL and the IC50 (neutralization, CEM.NKr.CCR5.LucR based assay) [5] was over 100 µg/mL. The IC50 (neutralization, CEM.NKr.CCR5.LucR based assay) [6] was 0.013 µg/mL, the IC50 (neutralization, CEM.NKr.CCR5.LucR based assay) [7] was 0.028 µg/mL and the IC50 (neutralization, CEM.NKr.CCR5.LucR based assay) [8] was over 100 µg/mL. For the same substance, the IC50 (neutralization, CEM.NKr.CCR5.LucR based assay) [9] was over 100 µg/mL.
